Test results: the supplement of paper PMC6757056
± gives the standard deviation of the averaged measurements.

B1: library; a variant is named by its letters at N, in order (parent)
chain: GCUGUCACCGGUGCUUGGUACGUUAUAUUCAGCCGGUCUGAUGAGUCUNNNNNNAGACGAAACAGC

Tests used:
(6R,S)-folinic acid [1] = variants of: B1; assay: FACS-Seq fitted mean relative fluorescence mCherry/BFP without ligand (log10 relative fluorescence); HEK293T overexpressing SLC46A1; higher = higher reporter protein expression; details: without (6R,S)-folinic acid; ligand present: no
In short: (§1)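 HEK293T libraries were lentivirally transduced with an mCherry reporter carrying the ribozyme switch and an EF1α-BFP marker, enriched, and incubated for 48 h with or without ligand before sorting into 6 bins by mCherry/BFP. Genomic DNA from each bin was PCR-amplified, barcoded and sequenced on MiSeq. Fluorescence is the fitted normal mean of the bin counts. The fit used log10(mCherry/BFP), and means were scaled to five spiked-in control ribozymes.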

(6R,S)-folinic acid [2] = variants of: B1; assay: normalized RNA/DNA level without ligand (relative to sTRSVctl = 100) (log10 (% of sTRSVctl)); HEK293T overexpressing SLC46A1; higher = less ribozyme self-cleavage, higher mRNA level; details: without (6R,S)-folinic acid; ligand present: no
In short: (§2)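 Total RNA, extracted with EDTA 72 h after HEK293T cells were transfected with 4 µg per 6-well well of reporter-linked ribozyme switch library plasmids, was reverse-transcribed, amplified, barcoded and sequenced. Ligand, if used, was added 1 h before transfection. RNA level was derived from RNA reads divided by DNA reads and normalized to a spiked-in non-cleaving sequence or to the top sequences. This was multiplied by 100 and log10-transformed, with the top set of 25 sequences and a ≥100 DNA read minimum.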

(6R,S)-folinic acid [3] = variants of: B1; assay: FACS-Seq fitted mean relative fluorescence mCherry/BFP with ligand (log10 relative fluorescence); HEK293T overexpressing SLC46A1; ligand concentration (+) FACS-Seq: 6 mM; higher = higher reporter protein expression; details: with (6R,S)-folinic acid; ligand present: yes
In short: as §1

(6R,S)-folinic acid [4] = variants of: B1; assay: normalized RNA/DNA level with ligand (relative to sTRSVctl = 100) (log10 (% of sTRSVctl)); HEK293T overexpressing SLC46A1; ligand concentration (+) RNA-Seq: 6 mM; higher = less ribozyme self-cleavage, higher mRNA level; details: with (6R,S)-folinic acid; ligand present: yes
In short: as §2

Variant	FACS-Seq fitted mean (log10) ((6R,S)-folinic acid [1])	normalized RNA/DNA level without ligand (log10) ((6R,S)-folinic acid [2])	FACS-Seq fitted mean (log10) ((6R,S)-folinic acid [3])	normalized RNA/DNA level with ligand (log10) ((6R,S)-folinic acid [4])
UGCCGG	0.22 ± 0.012	1.92 ± 0.011	0.707 ± 0.05	2.006 ± 0.018
UGGAGA	0.189 ± 0.11	1.83 ± 0.026	0.388 ± 0.12	2.01 ± 0.044
UGGAGG	0.042 ± 0.039	1.641 ± 0.0022	0.458 ± 0.14	1.96 ± 0.031
CGCAGC	0.491 ± 0.09	2.01 ± 0.033	0.645 ± 0.4	2.01 ± 0.031
AGCAAA	0.455 ± 0.047	1.979 ± 0.004	0.532 ± 0.21	2 ± 0.028
UGACAG	0.327 ± 0.16	1.82 ± 0.022	0.34 ± 0.028	1.971 ± 0.0094
UGACAA	-0.327 ± 0.12	1.952 ± 0.0062	-0.72 ± 0.24	2.024 ± 0.018
CGCCAG	0.509 ± 0.022	1.998 ± 0.013	0.216 ± 0.15	1.998 ± 0.016
AGAUCA	-0.134 ± 0.025	2.01 ± 0.005	-0.625 ± 0.07	2 ± 0.058
AGCGCA	0.49 ± 0.034	2.01 ± 0.021	0.548 ± 0.31	2.04 ± 0.029
GGAAUG	0.589 ± 0.011	1.973 ± 0.0085	0.668 ± 0.1	2.03 ± 0.029
GGAAUC	-0.317 ± 0.23	2.055 ± 0.0066	-0.244 ± 0.51	2.05 ± 0.023
GGAAUU	0.362 ± 0.1	2.046 ± 0.0046	0.236 ± 0.27	2.061 ± 0.016
CGGAAU	0.329 ± 0.016	1.97 ± 0.022	0.208 ± 0.2	2.02 ± 0.034
UGGACG	0.175 ± 0.0034	1.778 ± 0.013	0.472 ± 0.059	1.97 ± 0.029
UGGACA	0.24 ± 0.025	1.95 ± 0.0054	0.186 ± 0.017	2.019 ± 0.019
UGGACC	0.168 ± 0.11	2.01 ± 0.033	0.0739 ± 0.15	1.97 ± 0.033
UGACCA	0.061 ± 0.12	2.042 ± 0.0098	-0.0235 ± 0.23	2.05 ± 0.039
UGGAAG	0.369 ± 0.058	1.653 ± 0.0055	0.695 ± 0.017	1.96 ± 0.039
CGCAUA	0.387 ± 0.012	1.98 ± 0.0046	0.156 ± 0.073	2 ± 0.059
CGCAUU	0.241 ± 0.21	2.015 ± 0.0023	0.576 ± 0.31	1.99 ± 0.039
UGAACU	0.534 ± 0.077	1.988 ± 0.016	0.35 ± 0.14	2 ± 0.032
UGAACG	0.174 ± 0.17	1.83 ± 0.021	0.296 ± 0.022	2 ± 0.035
AGAUUC	0.551 ± 0.08	2.05 ± 0.0077	0.54 ± 0.24	2.04 ± 0.042

Variant	FACS-Seq fitted mean (log10) ((6R,S)-folinic acid [1])	normalized RNA/DNA level without ligand (log10) ((6R,S)-folinic acid [2])	FACS-Seq fitted mean (log10) ((6R,S)-folinic acid [3])	normalized RNA/DNA level with ligand (log10) ((6R,S)-folinic acid [4])
AGAUUA	0.568 ± 0.048	2.001 ± 0.018	0.535 ± 0.036	2.01 ± 0.037
CGAGAA	0.311 ± 0.059	1.9567 ± 0.0017	0.426 ± 0.19	2.01 ± 0.039
AGACGA	-0.49 ± 0.11	1.99 ± 0.015	-0.617 ± 0.18	2.02 ± 0.03
AGACGC	0.389 ± 0.13	2.018 ± 0.016	0.336 ± 0.11	2.01 ± 0.042
GGAGCC	0.129 ± 0.011	2.0238 ± 0.0014	0.0129 ± 0.069	2.026 ± 0.02
CGCUUU	-0.0215 ± 0.022	2.017 ± 0.0068	0.0431 ± 0.039	2 ± 0.063
UGAUAC	0.272 ± 0.049	1.984 ± 0.019	0.128 ± 0.094	2 ± 0.044
UGAUAA	0.48 ± 0.24	1.926 ± 0.019	0.632 ± 0.35	2.004 ± 0.017
AGGAGA	0.26 ± 0.062	1.931 ± 0.007	0.172 ± 0.078	2.018 ± 0.017
AGGAGG	0.585 ± 0.15	1.922 ± 0.0095	0.614 ± 0.2	2.05 ± 0.03
GGACUA	0.287 ± 0.07	1.989 ± 0.0053	0.202 ± 0.044	1.97 ± 0.033
UGAUCG	0.0489 ± 0.16	1.84 ± 0.021	0.0432 ± 0.082	1.992 ± 0.016
UGCAGG	-0.138 ± 0.052	1.68 ± 0.029	-0.00907 ± 0.1	1.909 ± 0.017
UGCAGA	-0.262 ± 0.068	1.899 ± 0.008	-0.0873 ± 0.14	1.995 ± 0.0057
GGCCAU	0.522 ± 0.091	2.05 ± 0.023	0.337 ± 0.19	2.01 ± 0.063
GGCCAA	0.479 ± 0.052	2.045 ± 0.013	0.409 ± 0.049	2.024 ± 0.0077
UGCCUG	0.68 ± 0.017	1.875 ± 0.016	0.78 ± 0.085	2.02 ± 0.021
UCUUUU	0.427 ± 0.12	2.005 ± 0.0088	0.26 ± 0.18	2.027 ± 0.013
CGCAAC	0.453 ± 0.13	2.027 ± 0.0066	0.417 ± 0.14	1.99 ± 0.013
UGCGAC	0.375 ± 0.053	1.979 ± 0.018	0.26 ± 0.29	2.02 ± 0.034
UGCGAU	0.213 ± 0.026	1.85 ± 0.019	-0.0289 ± 0.033	1.98 ± 0.029
UGCGAG	0.31 ± 0.21	1.71 ± 0.027	-0.231 ± 0.053	1.96 ± 0.058
GGGAGC	0.342 ± 0.098	1.831 ± 0.0028	0.435 ± 0.029	1.96 ± 0.029
GGGAGG	0.108 ± 0.032	2.014 ± 0.004	0.269 ± 0.081	2.04 ± 0.032

Variant	FACS-Seq fitted mean (log10) ((6R,S)-folinic acid [1])	normalized RNA/DNA level without ligand (log10) ((6R,S)-folinic acid [2])	FACS-Seq fitted mean (log10) ((6R,S)-folinic acid [3])	normalized RNA/DNA level with ligand (log10) ((6R,S)-folinic acid [4])
UGAGUG	0.376 ± 0.083	1.652 ± 0.011	0.652 ± 0.081	1.93 ± 0.023
UGAGUA	0.204 ± 0.015	1.911 ± 0.0073	0.422 ± 0.1	2 ± 0.043
GGAGUA	0.117 ± 0.042	1.9805 ± 0.0005	0.0493 ± 0.22	2.03 ± 0.029
UGCCAA	0.194 ± 0.021	1.956 ± 0.015	0.168 ± 0.2	2.01 ± 0.0051
UGCCAC	0.366 ± 0.066	1.985 ± 0.017	0.438 ± 0.13	1.977 ± 0.013
GGAUUU	0.647 ± 0.23	2.02 ± 0.034	0.596 ± 0.19	2.01 ± 0.048
GGAUUC	0.835 ± 0.03	2.045 ± 0.0076	0.746 ± 0.041	2.021 ± 0.016
GGCGAU	0.444 ± 0.0094	2.07 ± 0.027	0.55 ± 0.15	2.037 ± 0.015
GGCGAC	0.216 ± 0.01	1.998 ± 0.003	0.128 ± 0.013	1.989 ± 0.0031
ACUUUA	0.348 ± 0.12	1.978 ± 0.014	0.366 ± 0.15	2.01 ± 0.028
GGACGA	0.242 ± 0.039	2.022 ± 0.011	0.493 ± 0.027	2.042 ± 0.011
GGACGU	0.583 ± 0.13	1.955 ± 0.015	0.529 ± 0.32	1.95 ± 0.024
GGAUAA	0.686 ± 0.051	1.9974 ± 0.00055	0.655 ± 0.074	2.03 ± 0.026
UGAGCU	0.387 ± 0.081	2 ± 0.013	0.479 ± 0.087	2.019 ± 0.012
UGAGCG	0.157 ± 0.15	1.736 ± 0.012	0.218 ± 0.39	1.98 ± 0.024
GGAAGA	0.0463 ± 0.13	1.993 ± 0.0044	0.239 ± 0.2	2.04 ± 0.031
AGACCA	0.1 ± 0.31	2.05 ± 0.0039	0.262 ± 0.072	2.03 ± 0.028
AGACCU	0.618 ± 0.15	2.02 ± 0.041	0.641 ± 0.01	2.05 ± 0.027
GGCACC	0.275 ± 0.084	2.018 ± 0.0066	-0.0119 ± 0.33	2.017 ± 0.0025
GGCACU	-0.00197 ± 0.025	2.08 ± 0.04	-0.0531 ± 0.17	2.02 ± 0.036
CGAAUA	0.314 ± 0.065	1.954 ± 0.0097	0.45 ± 0.14	1.978 ± 0.018
AGCGGU	0.638 ± 0.18	1.952 ± 0.013	0.522 ± 0.022	2 ± 0.043
UGAUUA	-0.918 ± 0.18	1.951 ± 0.0029	-0.48 ± 0.39	2.01 ± 0.037
UGAUUG	0.168 ± 0.056	1.768 ± 0.0099	0.541 ± 0.042	1.96 ± 0.025
